In this test the target is T1, DEC-205 receptor on DC 2.4 cells (mouse) (mouse, UniProt Q60767 28-1723).
T1 construct: whole, on cells; also called CD205
Nature of the test: competition cell ELISA on DC 2.4 cells; competitor bfFp (WET7) pre-bound. A general note: An ELISA detects its analyte on a solid surface through an enzyme-linked reagent.

Data on one molecule can be found in US20100129383A1 (GOVERNORS OF THE UNIVERSITY OF ALBERTA, published 2010).

B1: HB290 mAb (rat anti-mouse DEC-205 monoclonal antibody) (antibody, V domains shown)
VH: EVKLVESGGGLVQPGGSLRLSCAASGFTFNDFYMNWIRQPPGQAPEWLGVIRNKGNGYTTEVNTSVKGRFTISRDNTQNILYLQMNSLRAEDTAIYYCARGGPYYYSGDDAPYWGQGVMVTVSS
VL: DIQMTQSPSFLSTSLGNSITITCHASQNIKGWLAWYQQKSGNAPQLLIYKASSLQSGVPSRFSGSGSGTDYIFTISNLQPEDIATYYCQHYQSFPWTFGGGTKLELK
notes: Full-length rat mAb from the ATCC hybridoma HB290; also called full-length HB290 mAb; NLDC-145
As to B1, the binding result is “binds”.
